Assay results taken from patent publication US20100143950A1.
Values joined by “and” are separate entries in the source; they are usually repeats but may differ in a detail not shown here. Equal entries are not always repeated.

Key:
[1] = molecular target: C-reactive protein (CRP) (human) (UniProt P02741); test: ELISA, purified CFH variant on plate-coated CRP
[2] = molecular target: C-reactive protein (CRP) (human) (UniProt P02741); test: ELISA, serum 1:1,000 on plate-coated CRP, detection with goat anti-human CFH

Chain of UniProt P02741 (P02741 19-224 limits assumed): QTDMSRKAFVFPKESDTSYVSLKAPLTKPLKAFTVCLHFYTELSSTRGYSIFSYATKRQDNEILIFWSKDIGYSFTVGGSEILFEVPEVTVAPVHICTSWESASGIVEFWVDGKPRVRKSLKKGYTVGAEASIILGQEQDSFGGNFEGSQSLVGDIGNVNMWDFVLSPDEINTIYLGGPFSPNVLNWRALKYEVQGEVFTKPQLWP

- OD492 [1]: 0.763 OD492
- OD492 [2]: 0.532 OD492 and 0.609 OD492
Substance: Complement Factor H 402Y variant (CFH402Y), from human serum of TT homozygotes (from UniProt P08603 19-1231)
